Experimental data from US20250215101A1, “DR5 Agonist and PLK1 Inhibitor or CDK Inhibitor Combination Therapy” (Inhibrx Biosciences, Inc., priority 2022, published 2025).

Experiments:
[1] = system: SW620; experiment: Cell viability (CellTiter-Glo) cytotoxicity assay, INBRX-109 x CDK9 or MCL-1 inhibitor matrix, 48 h, colorectal cancer line
Protocol: On day 1, cells were seeded as follows. Monolayer cultures of each cell line (chondrosarcoma: CAL-78, OUMS-27, SW1353, and H-EMC-SS; colorectal cancer: SW620; and synovial sarcoma: HS-SY-II) were harvested for compound screening. Culture medium was aspirated, and the cells were washed once with PBS. Accutase was added and flasks were incubated at 37° C. until cells became detached. An equal volume of complete medium was added to quench the Accutase, and the cells were then pipetted up and down several times to generate a homogenous single cell suspension. The density and viability of cells was determined by Trypan Blue using a TC20 Automated Cell Counter. Experimental cells were resuspended to a concentration of 0.17×10^6/mL in Eagle's Minimum Essential Medium (EMEM)/10% FBS/Anti-Anti media (complete EMEM) and seeded in the inner wells of 384-well luminescence plates at 15 mL/well (2,500/well final). Each cell line was plated in duplicate on separate plates. Outer wells were filled with 50 mL PBS, then plates were incubated in a humidified temperature-controlled 37° C. tissue culture incubator at 5% CO2 overnight for 16 hours.
These test articles were added, in duplicate, to each cell line. The plates were then centrifuged at 400×g for 1 minute, then incubated in a 37° C. humidity-controlled tissue culture incubator (5% CO2) for 48 hours.
After incubation with the test articles, viability measurements were taken, briefly. Plates were equilibrated to room temperature for 10 minutes, then 25 μL of CellTiter-Glo 2.0® was added to each well. Plates were spun for 1 minute at 400×g, then covered and incubated in the dark for 10 minutes at room temperature. Any visible bubbles were removed with 100% ethanol vapor, then luminescence (RLU) was read on the Spectra Max M5e plate reader, using the 384-well opaque plate setting and SoftMax® Pro v5.4 software with an integration time of 50 milliseconds. To determine the effect of test articles on cell viability, raw RLU values were exported to Excel and percent survival was calculated as a percentage of vehicle control (0.5% DMSO in EMEM), where the vehicle control is set at 100%. Data was graphed in GraphPad Prism 9.

[2] = system: Hutu 80; experiment: Cytotoxicity assay, colorectal cancer cell line panel, onvansertib +/- 1 nM INBRX-109; format: cell-based; conditions: Hutu 80; 1 nM INBRX-109 only
Protocol: (§1) Monolayer cultures of each cell line were harvested for compound screening as detailed below.
(§2) Also on day 2, test and control articles were added.
(§3) On day 4, viability measurements were taken. […] Data was graphed in GraphPad Prism 9.
(§4) The results for a panel of colorectal cancer cell lines are shown in Table 3 and FIGS. 4-6, and the results for a panel of pancreatic cell lines are shown in Table 4 and FIGS. 7 and 8.

[3] = system: SW-403; experiment: as above; format: cell-based; conditions: SW-403; 1 nM INBRX-109 only
Protocol: as §1, §2, §3, §4

[4] = system: SNU-C2A; experiment: as above; format: cell-based; conditions: 1 nM INBRX-109 only
Protocol: as §1, §2, §3, §4

[5] = system: SW620; experiment: as above; format: cell-based; conditions: SW620; 1 nM INBRX-109 only
Protocol: as §1, §2, §3, §4

[6] = system: RKO; experiment: as above; format: cell-based; conditions: 1 nM INBRX-109 only
Protocol: as §1, §2, §3, §4

[7] = system: LoVo; experiment: as above; format: cell-based; conditions: 1 nM INBRX-109 only
Protocol: as §1, §2, §3, §4

[8] = system: NCI-H747; experiment: as above; format: cell-based; conditions: NCI-H747; 1 nM INBRX-109 only
Protocol: as §1, §2, §3, §4

[9] = system: SNU-81; experiment: as above; format: cell-based; conditions: 1 nM INBRX-109 only
Protocol: as §1, §2, §3, §4

[10] = system: LS 1034; experiment: as above; format: cell-based; conditions: LS 1034; 1 nM INBRX-109 only
Protocol: as §1, §2, §3, §4

[11] = system: LS174T; experiment: as above; format: cell-based; conditions: 1 nM INBRX-109 only
Protocol: as §1, §2, §3, §4

[12] = system: SW-837; experiment: as above; format: cell-based; conditions: SW-837; 1 nM INBRX-109 only
Protocol: as §1, §2, §3, §4

[13] = system: LS 123; experiment: as above; format: cell-based; conditions: LS 123; 1 nM INBRX-109 only
Protocol: as §1, §2, §3, §4

[14] = system: SW-480; experiment: as above; format: cell-based; conditions: SW-480; 1 nM INBRX-109 only
Protocol: as §1, §2, §3, §4

[15] = system: SNU-C5; experiment: as above; format: cell-based; conditions: 1 nM INBRX-109 only
Protocol: as §1, §2, §3, §4

[16] = system: SW-48; experiment: as above; format: cell-based; conditions: SW-48; 1 nM INBRX-109 only
Protocol: as §1, §2, §3, §4

[17] = system: SW-1116; experiment: as above; format: cell-based; conditions: SW-1116; 1 nM INBRX-109 only
Protocol: as §1, §2, §3, §4

[18] = system: HCT-15; experiment: as above; format: cell-based; conditions: HCT-15; 1 nM INBRX-109 only
Protocol: as §1, §2, §3, §4

[19] = system: SW-948; experiment: as above; format: cell-based; conditions: SW-948; 1 nM INBRX-109 only
Protocol: as §1, §2, §3, §4

[20] = system: SK-CO-1; experiment: as above; format: cell-based; conditions: SK-CO-1; 1 nM INBRX-109 only
Protocol: as §1, §2, §3, §4

[21] = system: T84; experiment: as above; format: cell-based; conditions: T84; 1 nM INBRX-109 only
Protocol: as §1, §2, §3, §4

[22] = system: LS 180; experiment: as above; format: cell-based; conditions: LS 180; 1 nM INBRX-109 only
Protocol: as §1, §2, §3, §4

[23] = system: DLD-1; experiment: as above; format: cell-based; conditions: DLD-1; 1 nM INBRX-109 only
Protocol: as §1, §2, §3, §4

[24] = system: HT-29; experiment: as above; format: cell-based; conditions: HT-29; 1 nM INBRX-109 only
Protocol: as §1, §2, §3, §4

[25] = system: HCT 116; experiment: as above; format: cell-based; conditions: HCT 116; 1 nM INBRX-109 only
Protocol: as §1, §2, §3, §4

[26] = system: COLO320DM; experiment: as above; format: cell-based; conditions: 1 nM INBRX-109 only
Protocol: as §1, §2, §3, §4

[27] = system: LS 513; experiment: as above; format: cell-based; conditions: LS 513; 1 nM INBRX-109 only
Protocol: as §1, §2, §3, §4

[28] = system: HCT-8; experiment: as above; format: cell-based; conditions: HCT-8; 1 nM INBRX-109 only
Protocol: as §1, §2, §3, §4

[29] = system: HT-55; experiment: as above; format: cell-based; conditions: HT-55; 1 nM INBRX-109 only
Protocol: as §1, §2, §3, §4

B1: INBRX-109: DR5-binding polypeptide consisting of SEQ ID NO: 7 (two VHH domains and an Fc region); DR5 agonist (protein)
chain: EVQLLESGGGEVQPGGSLRLSCAASGLTFPNYGMGWFRQAPGKEREFVSAIYWSGGTVYYAESVKGRFTISRDNAKNTLYLQMSSLRAEDTAVYYCAVTIRGAATQTWKYDYWGQGTLVTVKPGGSGGSEVQLLESGGGEVQPGGSLRLSCAASGLTFPNYGMGWFRQAPGKEREFVSAIYWSGGTVYYAESVKGRFTISRDNAKNTLYLQMSSLRAEDTAVYYCAVTIRGAATQTWKYDYWGQGTLVTVKPGGGGDKTHTCPPCPAPGGPSVFLFPPKPKDTLMISRTPEVTCVVVDVSHEDPEVKFNWYVDGVEVHNAKTKPREEQYNSTYRVVSVLTVLHQDWLNGKEYKCKVSNKALPAPIEKTISKAKGQPREPQVYTLPPSRDELTKNQVSLTCLVKGFYPSDIAVEWESNGQPENNYKTTPPVLDSDGSFFLYSKLTVDKSRWQQGNVFSCSVMHEALHNHYTQKSLSLSPGK
modifications: INBRX-109
notes: DR5 agonist
EC50 ([1]; INBRX-109 + 2 μM AZD-5991): 5.78 pM | EC50 ([1]; INBRX-109 only (Table 5)): 7.8 pM | EC50 ([1]; INBRX-109 only (Table 7)): 98.1 pM | EC50 ([1]; INBRX-109 only (Table 9)): 1.37 pM | EC50 ([1]; INBRX-109 only (Table 11)): 1.98 pM | EC50 ([1]; INBRX-109 only (Table 13)): 9.84 pM | Max Cytotox at 1 nM [2]: 4.0% | Max Cytotox at 1 nM [3]: 15.7% | Max Cytotox at 1 nM [4]: 41.4% | Max Cytotox at 1 nM [5]: 19.4% | Max Cytotox at 1 nM [6]: 3.6% | Max Cytotox at 1 nM [7]: 16.2% | Max Cytotox at 1 nM [8]: 13.4% | Max Cytotox at 1 nM [9]: 82.1% | Max Cytotox at 1 nM [10]: 56.9% | Max Cytotox at 1 nM [11]: 41.2% | Max Cytotox at 1 nM [12]: 7.1% | Max Cytotox at 1 nM [13]: 3.1% | Max Cytotox at 1 nM [14]: 19.7% | Max Cytotox at 1 nM [15]: 48.6% | Max Cytotox at 1 nM [16]: 93.9% | Max Cytotox at 1 nM [17]: 15.3% | Max Cytotox at 1 nM [18]: 49.6% | Max Cytotox at 1 nM [19]: 98.5% | Max Cytotox at 1 nM [20]: 92.2% | Max Cytotox at 1 nM [21]: 9.1% | Max Cytotox at 1 nM [22]: 27.2% | Max Cytotox at 1 nM [23]: 41.9% | Max Cytotox at 1 nM [24]: 19.9% | Max Cytotox at 1 nM [25]: 54.4% | Max Cytotox at 1 nM [26]: 4.7% | Max Cytotox at 1 nM [27]: 92.3% | Max Cytotox at 1 nM [28]: 6.7% | Max Cytotox at 1 nM [29]: 48.4%
